The labels stand for the following.
B1: Barstar, P11540 (parent)
chain: MKKAVINGEQIRSISDLHQTLKKELALPEYYGENLDALWDCLTGWVEYPLVLEWRQFEQSKQLTENGAESVLQVFREAKAEGCDITIILS

The data set covers variants of B1. The settings on record: Bacillus amyloliquefaciens; pH 7.5; 25 °C; Urea; fluorescence; HEPES; KCL / MgOAc 150000 / 15000; transition: 2; structure 1BTA; whole UniProt chain shown.

“And” between values parts separate entries of the source, which are not always exact repeats. Identical values can stand only once.

Turning to K79A, the denaturant m value is 0.89 kcal/mol/M and 0.48 kcal/mol/M; the “denaturant midpoint (higher = more stable)” value (shortened to “denaturant midpoint”) is 4.65 M and 4.24 M; the unfolding free energy came out at 4.16 kcal/mol.

Turning to K61A E81A, the denaturant m value was 1.16 kcal/mol/M and 0.7 kcal/mol/M; the “denaturant midpoint” value was 6.02 M and 3.72 M; the unfolding free energy was determined as 6.99 kcal/mol.

As for K61A, the denaturant m value is 0.96 kcal/mol/M and 0.68 kcal/mol/M; the “denaturant midpoint” value is 4.41 M and 2.51 M; the unfolding free energy is 4.25 kcal/mol.

Turning to K3A, the denaturant m value was 1.06 kcal/mol/M and 0.59 kcal/mol/M; the “denaturant midpoint” value is 4.97 M and 2.52 M; the unfolding free energy worked out at 5.27 kcal/mol.

(Values after FireProtDB (doi:10.1038/s41589-020-0556-3).)
